From patent publication US20140087995A1 (published 2014)
Numbered stars: 1 amine (or outer) side, 2 acyl side, 3 side chain; on linkers, the order of the positions; unused ones are H or OH. Bridge positions count the residues as written; N and C are the ends. Square brackets hold non-standard residues; d marks the D form. Side chains are listed from the residue outwards. Ends that are not written are not given here. * marks the point of attachment. C20 diacid = O=C(O)CCCCCCCCCCCCCCCCCCC(=O)*; γGlu = O=C(O)[C@H](CCC(=O)[*:2])N[*:1]

B1: N^ε1-[(4S)-4-carboxy-4-[[(4S)-4-carboxy-4-(19-carboxynonadecanoylamino)butanoyl]amino]butanoyl]-[Arg17,Pro21,Pro27,Pro31,Pro34,Arg35]-h-amylin (peptide)
peptide: K([γGlu-γGlu-C20 diacid])CNTATCATQRLANFLRHSSPNFGAIPSSTPVGPRTY-NH2
modifications: disulfide 2-7; N-terminus assumed
SMILES: CC[C@H](C)[C@H](NC(=O)[C@H](C)NC(=O)CNC(=O)[C@H](Cc1ccccc1)NC(=O)[C@H](CC(N)=O)NC(=O)[C@@H]1CCCN1C(=O)[C@H](CO)NC(=O)[C@H](CO)NC(=O)[C@H](Cc1c[nH]cn1)NC(=O)[C@H](CCCNC(=N)N)NC(=O)[C@H](CC(C)C)NC(=O)[C@H](Cc1ccccc1)NC(=O)[C@H](CC(N)=O)NC(=O)[C@H](C)NC(=O)[C@H](CC(C)C)NC(=O)[C@H](CCCNC(=N)N)NC(=O)[C@H](CCC(N)=O)NC(=O)[C@@H](NC(=O)[C@H](C)NC(=O)[C@@H]1CSSC[C@H](NC(=O)[C@@H](N)CCCCNC(=O)CC[C@H](NC(=O)CC[C@H](NC(=O)CCCCCCCCCCCCCCCCCCC(=O)O)C(=O)O)C(=O)O)C(=O)N[C@@H](CC(N)=O)C(=O)N[C@@H]([C@@H](C)O)C(=O)N[C@@H](C)C(=O)N[C@@H]([C@@H](C)O)C(=O)N1)[C@@H](C)O)C(=O)N1CCC[C@H]1C(=O)N[C@@H](CO)C(=O)N[C@@H](CO)C(=O)N[C@H](C(=O)N1CCC[C@H]1C(=O)N[C@H](C(=O)NCC(=O)N1CCC[C@H]1C(=O)N[C@@H](CCCNC(=N)N)C(=O)N[C@H](C(=O)N[C@@H](Cc1ccc(O)cc1)C(N)=O)[C@@H](C)O)C(C)C)[C@@H](C)O
notes: modifications are with respect to human amylin
B2: N^ε1-[(4S)-4-carboxy-4-[[(4S)-4-carboxy-4-(19-carboxynonadecanoylamino)butanoyl]amino]butanoyl]-[Asp14,Arg17,Pro21,Pro27,Pro34,Glu35]-h-amylin (peptide)
peptide: K([γGlu-γGlu-C20 diacid])CNTATCATQRLADFLRHSSPNFGAIPSSTNVGPETY-NH2
modifications: disulfide 2-7
notes: as for B1
B3: N^ε1-[(4S)-4-carboxy-4-[[(4S)-4-carboxy-4-(19-carboxynonadecanoylamino)butanoyl]amino]butanoyl]-[Asp14,Arg17,Pro21,Pro27,Pro34,Arg35]-h-amylin (peptide)
peptide: K([γGlu-γGlu-C20 diacid])CNTATCATQRLADFLRHSSPNFGAIPSSTNVGPRTY-NH2
modifications: disulfide 2-7
notes: modifications are with respect to human amylin; also called compound 130
B4: N^ε1-[(4S)-4-carboxy-4-[[(4S)-4-carboxy-4-(19-carboxynonadecanoylamino)butanoyl]amino]butanoyl]-[D-Asp14,Arg17,Pro21,Pro27,Arg35]-h-amylin (peptide)
peptide: K([γGlu-γGlu-C20 diacid])CNTATCATQRLA[dD]FLRHSSPNFGAIPSSTNVGSRTY-NH2
modifications: disulfide 2-7; N-terminus assumed
SMILES: CC[C@H](C)[C@H](NC(=O)[C@H](C)NC(=O)CNC(=O)[C@H](Cc1ccccc1)NC(=O)[C@H](CC(N)=O)NC(=O)[C@@H]1CCCN1C(=O)[C@H](CO)NC(=O)[C@H](CO)NC(=O)[C@H](Cc1c[nH]cn1)NC(=O)[C@H](CCCNC(=N)N)NC(=O)[C@H](CC(C)C)NC(=O)[C@H](Cc1ccccc1)NC(=O)[C@@H](CC(=O)O)NC(=O)[C@H](C)NC(=O)[C@H](CC(C)C)NC(=O)[C@H](CCCNC(=N)N)NC(=O)[C@H](CCC(N)=O)NC(=O)[C@@H](NC(=O)[C@H](C)NC(=O)[C@@H]1CSSC[C@H](NC(=O)[C@@H](N)CCCCNC(=O)CC[C@H](NC(=O)CC[C@H](NC(=O)CCCCCCCCCCCCCCCCCCC(=O)O)C(=O)O)C(=O)O)C(=O)N[C@@H](CC(N)=O)C(=O)N[C@@H]([C@@H](C)O)C(=O)N[C@@H](C)C(=O)N[C@@H]([C@@H](C)O)C(=O)N1)[C@@H](C)O)C(=O)N1CCC[C@H]1C(=O)N[C@@H](CO)C(=O)N[C@@H](CO)C(=O)N[C@H](C(=O)N[C@@H](CC(N)=O)C(=O)N[C@H](C(=O)NCC(=O)N[C@@H](CO)C(=O)N[C@@H](CCCNC(=N)N)C(=O)N[C@H](C(=O)N[C@@H](Cc1ccc(O)cc1)C(N)=O)[C@@H](C)O)C(C)C)[C@@H](C)O
B5: N^ε1-[(4S)-4-carboxy-4-[[(4S)-4-carboxy-4-(19-carboxynonadecanoylamino)butanoyl]amino]butanoyl]-[Glu14,Arg17,Pro21,Pro27,His34,Glu35]-h-amylin (peptide)
peptide: K([γGlu-γGlu-C20 diacid])CNTATCATQRLAEFLRHSSPNFGAIPSSTNVGHETY-NH2
modifications: disulfide 2-7; N-terminus assumed
SMILES: CC[C@H](C)[C@H](NC(=O)[C@H](C)NC(=O)CNC(=O)[C@H](Cc1ccccc1)NC(=O)[C@H](CC(N)=O)NC(=O)[C@@H]1CCCN1C(=O)[C@H](CO)NC(=O)[C@H](CO)NC(=O)[C@H](Cc1c[nH]cn1)NC(=O)[C@H](CCCNC(=N)N)NC(=O)[C@H](CC(C)C)NC(=O)[C@H](Cc1ccccc1)NC(=O)[C@H](CCC(=O)O)NC(=O)[C@H](C)NC(=O)[C@H](CC(C)C)NC(=O)[C@H](CCCNC(=N)N)NC(=O)[C@H](CCC(N)=O)NC(=O)[C@@H](NC(=O)[C@H](C)NC(=O)[C@@H]1CSSC[C@H](NC(=O)[C@@H](N)CCCCNC(=O)CC[C@H](NC(=O)CC[C@H](NC(=O)CCCCCCCCCCCCCCCCCCC(=O)O)C(=O)O)C(=O)O)C(=O)N[C@@H](CC(N)=O)C(=O)N[C@@H]([C@@H](C)O)C(=O)N[C@@H](C)C(=O)N[C@@H]([C@@H](C)O)C(=O)N1)[C@@H](C)O)C(=O)N1CCC[C@H]1C(=O)N[C@@H](CO)C(=O)N[C@@H](CO)C(=O)N[C@H](C(=O)N[C@@H](CC(N)=O)C(=O)N[C@H](C(=O)NCC(=O)N[C@@H](Cc1c[nH]cn1)C(=O)N[C@@H](CCC(=O)O)C(=O)N[C@H](C(=O)N[C@@H](Cc1ccc(O)cc1)C(N)=O)[C@@H](C)O)C(C)C)[C@@H](C)O
notes: as for B1
B6: N^ε1-[(4S)-4-carboxy-4-[[(4S)-4-carboxy-4-(19-carboxynonadecanoylamino)butanoyl]amino]butanoyl]-[Glu14,Arg17,Pro21,Pro27,Arg34,Glu35]-h-amylin (peptide)
peptide: K([γGlu-γGlu-C20 diacid])CNTATCATQRLAEFLRHSSPNFGAIPSSTNVGRETY-NH2
modifications: disulfide 2-7; N-terminus assumed
SMILES: CC[C@H](C)[C@H](NC(=O)[C@H](C)NC(=O)CNC(=O)[C@H](Cc1ccccc1)NC(=O)[C@H](CC(N)=O)NC(=O)[C@@H]1CCCN1C(=O)[C@H](CO)NC(=O)[C@H](CO)NC(=O)[C@H](Cc1c[nH]cn1)NC(=O)[C@H](CCCNC(=N)N)NC(=O)[C@H](CC(C)C)NC(=O)[C@H](Cc1ccccc1)NC(=O)[C@H](CCC(=O)O)NC(=O)[C@H](C)NC(=O)[C@H](CC(C)C)NC(=O)[C@H](CCCNC(=N)N)NC(=O)[C@H](CCC(N)=O)NC(=O)[C@@H](NC(=O)[C@H](C)NC(=O)[C@@H]1CSSC[C@H](NC(=O)[C@@H](N)CCCCNC(=O)CC[C@H](NC(=O)CC[C@H](NC(=O)CCCCCCCCCCCCCCCCCCC(=O)O)C(=O)O)C(=O)O)C(=O)N[C@@H](CC(N)=O)C(=O)N[C@@H]([C@@H](C)O)C(=O)N[C@@H](C)C(=O)N[C@@H]([C@@H](C)O)C(=O)N1)[C@@H](C)O)C(=O)N1CCC[C@H]1C(=O)N[C@@H](CO)C(=O)N[C@@H](CO)C(=O)N[C@H](C(=O)N[C@@H](CC(N)=O)C(=O)N[C@H](C(=O)NCC(=O)N[C@@H](CCCNC(=N)N)C(=O)N[C@@H](CCC(=O)O)C(=O)N[C@H](C(=O)N[C@@H](Cc1ccc(O)cc1)C(N)=O)[C@@H](C)O)C(C)C)[C@@H](C)O
notes: as for B1

What follows are binders tested against T1, human amylin receptor (Amylin 3(a) receptor: human calcitonin receptor co-expressed with RAMP-3) (human, UniProt P30988 25-474; O60896 24-148, limits assumed) (assay: SPA competition binding, displacement of 125I-rat amylin from membranes of BHK cells with human calcitonin receptor + RAMP-3 (Assay V)).
T1 construct: whole, on cells; Used as cell membranes prepared from the Amylin 3(a)/CRE-luc BHK cells (Assay V); the complex is called the human amylin receptor; also called hAmylin-R; hAmylinR
T1 sequence (looked up) 1: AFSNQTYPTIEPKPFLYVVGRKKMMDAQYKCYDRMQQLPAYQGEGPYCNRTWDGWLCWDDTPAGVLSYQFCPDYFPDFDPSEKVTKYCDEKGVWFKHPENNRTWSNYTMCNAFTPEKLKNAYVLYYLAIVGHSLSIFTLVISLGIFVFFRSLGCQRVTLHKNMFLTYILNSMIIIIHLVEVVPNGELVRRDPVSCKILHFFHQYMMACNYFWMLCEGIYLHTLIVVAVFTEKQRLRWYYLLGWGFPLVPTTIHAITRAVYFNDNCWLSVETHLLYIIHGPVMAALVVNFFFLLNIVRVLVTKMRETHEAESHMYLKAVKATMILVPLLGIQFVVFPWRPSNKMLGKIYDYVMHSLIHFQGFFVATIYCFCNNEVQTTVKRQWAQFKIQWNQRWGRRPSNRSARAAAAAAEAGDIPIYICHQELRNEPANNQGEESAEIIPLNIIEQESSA
T1 sequence (looked up) 2: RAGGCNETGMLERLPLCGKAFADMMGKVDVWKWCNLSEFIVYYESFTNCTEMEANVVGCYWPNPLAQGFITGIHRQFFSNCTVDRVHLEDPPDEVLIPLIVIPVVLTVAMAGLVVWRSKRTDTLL
Outline: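 Cell membranes were prepared by homogenisation in Na-HEPES/EDTA buffer, pH 7.4, and stored at −80° C. They were then coupled to SPA beads at 35 ng/μL final and exposed to compounds in assay buffer containing CaCl2, MgCl₂, OA and Tween20. After 120 min at 25° C, plates were counted and IC₅₀ derived.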

| Binder | IC50 |
| --- | --- |
| B1 | 880 pM |
| B2 | 172 pM |
| B3 | 453 pM |
| B4 | 365 pM |
| B5 | 525 pM |
| B6 | 957 pM |
